Patent US20140322196A1

Tests used:
[1] = biological target: Hemagglutinin (HA) of Influenza SW [change] 1089/09 swine pandemic H1N1 (inactivated subunits, vaccine) (Influenza A virus SW [change] swine pandemic H1N1); experiment: cell-based or functional assay
[2] = biological target: Hemagglutinin (HA) of Avian 29/05/06 H5N1 (inactivated vaccine) (Influenza A virus Avian 29/05/06 H5N1); experiment: cell-based or functional assay

Substance	HI titre [1] [fM]	HI titre [2] [fM]
Lactoferrin from bovine milk (bLf) (from UniProt P24627 20-708)	46.5	2900
… (SEQ ID NO: 1), bLf C-lobe peptide 418-429	5.8	18
… (SEQ ID NO: 2), bLf C-lobe peptide 506-522	46	70
